One block for each molecule: values may come before it.
Tests used:
[1] = target: C3b_(R161W) (human) (UniProt P01024)
[2] = target: C3b_(R592W) (human) (UniProt P01024)
[3] = target: wild-type C3b (human) (UniProt P01024); test: SPR; Biacore T100, CM5 chip; C3b surface brought to 1500 RU by thioester deposition (FB and FD with Mg2+ to form convertase, then mutant or wt C3 as substrate); sMCP 0.078-5 μM flowed 90 s, 300 s dissociation; 25 °C, 20 μl/min, HBS-EP; steady-state affinity analysis
[4] = target: C3b_(R161W) (human) (UniProt P01024); test: as above
[5] = target: C3b_(R592W) (human) (UniProt P01024); test: as above
[6] = target: C3b_(I1157T) (human, UniProt P01024 749-1663; P01024 749-1663, I1157T, C3b state: beta and alpha' chains disulfide-linked. Thioester (Cys1010-Gln1013) opened: hydrolysed in trypsin-generated C3b, or covalently attached to the chip via thioester for MCP SPR. Plasma glycop); test: SPR; Biacore T100, CM5 chip; C3b immobilised (400 RU, amine coupling); FH 0.07-4.18 μM flowed 180 s, 300 s dissociation; 25 °C, 20 μl/min, HBS-EP; steady-state affinity analysis; settings: both partners purified
[7] = target: wild-type C3b (human) (UniProt P01024); test: as above
[8] = target: C3b_(R161W) (human) (UniProt P01024); test: as above
[9] = target: C3b_(R592W) (human) (UniProt P01024); test: as above
[10] = target: C3b_(I1157T) (human, UniProt P01024 749-1663; P01024 749-1663, I1157T); test: SPR; Biacore T100, CM5 chip; C3b surface brought to 1500 RU by thioester deposition (FB and FD with Mg2+ to form convertase, then mutant or wt C3 as substrate); sMCP 0.078-5 μM flowed 90 s, 300 s dissociation; 25 °C, 20 μl/min, HBS-EP; steady-state affinity analysis; settings: both partners purified
Chain of C3b_(I1157T) (human, UniProt P01024 749-1663; P01024 749-1663, I1157T) (P01024 749-1663, stated change not applied, chain 1 of 2): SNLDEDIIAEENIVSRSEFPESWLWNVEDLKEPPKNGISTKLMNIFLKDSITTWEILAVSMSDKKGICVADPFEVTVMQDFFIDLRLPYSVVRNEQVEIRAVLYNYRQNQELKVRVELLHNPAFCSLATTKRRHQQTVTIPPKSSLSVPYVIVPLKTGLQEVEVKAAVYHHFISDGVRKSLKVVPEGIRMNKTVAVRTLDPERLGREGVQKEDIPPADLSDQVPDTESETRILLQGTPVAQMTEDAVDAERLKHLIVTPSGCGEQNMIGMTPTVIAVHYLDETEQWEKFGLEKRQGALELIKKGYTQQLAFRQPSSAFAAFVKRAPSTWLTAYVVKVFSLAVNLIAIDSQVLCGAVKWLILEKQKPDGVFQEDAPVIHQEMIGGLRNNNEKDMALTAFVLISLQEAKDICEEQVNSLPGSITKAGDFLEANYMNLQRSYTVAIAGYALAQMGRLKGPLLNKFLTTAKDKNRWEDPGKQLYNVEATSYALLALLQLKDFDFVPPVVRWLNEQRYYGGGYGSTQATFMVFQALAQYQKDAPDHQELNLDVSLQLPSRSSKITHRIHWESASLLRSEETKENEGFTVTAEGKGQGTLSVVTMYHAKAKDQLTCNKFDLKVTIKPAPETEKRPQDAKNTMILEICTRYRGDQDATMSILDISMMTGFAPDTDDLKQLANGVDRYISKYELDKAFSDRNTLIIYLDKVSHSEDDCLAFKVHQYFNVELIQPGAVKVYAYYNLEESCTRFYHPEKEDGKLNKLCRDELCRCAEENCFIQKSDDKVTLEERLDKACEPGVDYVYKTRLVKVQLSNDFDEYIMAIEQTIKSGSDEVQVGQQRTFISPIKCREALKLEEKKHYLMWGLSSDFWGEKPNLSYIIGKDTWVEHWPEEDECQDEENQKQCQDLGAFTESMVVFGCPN
Chain of C3b_(I1157T) (human, UniProt P01024 749-1663; P01024 749-1663, I1157T) (P01024 749-1663 I1157T, chain 2 of 2): as the sequence (P01024 749-1663, stated change not applied, chain 1 of 2) above, with I409T counted along it

Chain of C3b_(I1157T) (human, UniProt P01024 749-1663; P01024 749-1663, I1157T, C3b state: beta and alpha' chains disulfide-linked. Thioester (Cys1010-Gln1013) opened: hydrolysed in trypsin-generated C3b, or covalently attached to the chip via thioester for MCP SPR. Plasma glycop) (P01024 749-1663, stated change not applied, chain 1 of 2): as the sequence (P01024 749-1663, stated change not applied, chain 1 of 2) above
Chain of C3b_(I1157T) (human, UniProt P01024 749-1663; P01024 749-1663, I1157T, C3b state: beta and alpha' chains disulfide-linked. Thioester (Cys1010-Gln1013) opened: hydrolysed in trypsin-generated C3b, or covalently attached to the chip via thioester for MCP SPR. Plasma glycop) (P01024 749-1663 I1157T, chain 2 of 2): as the sequence (P01024 749-1663, stated change not applied, chain 1 of 2) above, with I409T counted along it

FI-mediated cleavage of C3b with sMCP as cofactor, purified proteins in solution, 0-10 min at 37 °C; percent of C3b cleaved after 10 min (wt almost completely cleaved) [1]: 70%
FI-mediated cleavage of C3b with sMCP as cofactor, purified proteins in solution, 0-10 min at 37 °C; percent of C3b cleaved after 10 min (wt almost completely cleaved) [2]: 70%
Kd [3]: 570 nM
Kd [4]: 930 nM
Kd [5]: 710 nM
Molecule: soluble recombinant membrane cofactor protein (sMCP) (from UniProt P15529 35-286) (domain or fragment)

Kd [6]: 1420 nM
Kd [7]: 960 nM
Kd [8]: 2390 nM
Kd [9]: 2450 nM
B1: factor H (natural protein, human, UniProt P08603 19-1231, looked up)
chain: EDCNELPPRRNTEILTGSWSDQTYPEGTQAIYKCRPGYRSLGNVIMVCRKGEWVALNPLRKCQKRPCGHPGDTPFGTFTLTGGNVFEYGVKAVYTCNEGYQLLGEINYRECDTDGWTNDIPICEVVKCLPVTAPENGKIVSSAMEPDREYHFGQAVRFVCNSGYKIEGDEEMHCSDDGFWSKEKPKCVEISCKSPDVINGSPISQKIIYKENERFQYKCNMGYEYSERGDAVCTESGWRPLPSCEEKSCDNPYIPNGDYSPLRIKHRTGDEITYQCRNGFYPATRGNTAKCTSTGWIPAPRCTLKPCDYPDIKHGGLYHENMRRPYFPVAVGKYYSYYCDEHFETPSGSYWDHIHCTQDGWSPAVPCLRKCYFPYLENGYNQNYGRKFVQGKSIDVACHPGYALPKAQTTVTCMENGWSPTPRCIRVKTCSKSSIDIENGFISESQYTYALKEKAKYQCKLGYVTADGETSGSITCGKDGWSAQPTCIKSCDIPVFMNARTKNDFTWFKLNDTLDYECHDGYESNTGSTTGSIVCGYNGWSDLPICYERECELPKIDVHLVPDRKKDQYKVGEVLKFSCKPGFTIVGPNSVQCYHFGLSPDLPICKEQVQSCGPPPELLNGNVKEKTKEEYGHSEVVEYYCNPRFLMKGPNKIQCVDGEWTTLPVCIVEESTCGDIPELEHGWAQLSSPPYYYGDSVEFNCSESFTMIGHRSITCIHGVWTQLPQCVAIDKLKKCKSSNLIILEEHLKNKKEFDHNSNIRYRCRGKEGWIHTVCINGRWDPEVNCSMAQIQLCPPPPQIPNSHNMTTTLNYRDGEKVSVLCQENYLIQEGEEITCKDGRWQSIPLCVEKIPCSQPPQIEHGTINSSRSSQESYAHGTKLSYTCEGGFRISEENETTCYMGKWSSPPQCEGLPCKSPPEISHGVVAHMSDSYQYGEEVTYKCFEGFGIDGPAIAKCLGEKWSHPPSCIKTDCLSLPSFENAIPMGEKKDVYKAGEQVTYTCATYYKMDGASNVTCINSRWTGRPTCRDTSCVNPPTVQNAYIVSRQMSKYPSGERVRYQCRSPYEMFGDEEVMCLNGNWTEPPQCKDSTGKCGPPPPIDNGDITSFPLSVYAPASSVEYQCQNLYQLEGNKRITCRNGQWSEPPKCLHPCVISREIMENYNIALRWTAKQKLYSRTGESVEFVCKRGYRLSSRSHTLRTTCWDGKLEYPTCAKR
notes: complement factor H, human, from plasma; also called FH; CFH

Kd [10]: 940 nM
B2: soluble recombinant membrane cofactor protein (sMCP) (domain or fragment)
chain: CEEPPTFEAMELIGKPKPYYEIGERVDYKCKKGYFYIPPLATHTICDRNHTWLPVSDDACYRETCPYIRDPLNGQAVPANGTYEFGYQMHFICNEGYYLIGEEILYCELKGSVAIWSGKPPICEKVLCTPPPKIKNGKHTFSEVEVFEYLDAVTYSCDPAPGPDPFSLIGESTIYCGDNSVWSRAAPECKVVKCRFPVVENGKQISGFGKKFYYKATVMFECDKGFYLDGSDTIVCDSNSTWDPPVPKCLKV
notes: membrane cofactor protein (MCP, CD46), the first four short consensus repeats (SCR1-4); also called CD46; recombinant soluble MCP; source: recombinant; gift from Prof; Susan Lea, Oxford University

Reference: paper PMC4503813, “The molecular and structural bases for the association of complement C3 mutations with atypical hemolytic uremic syndrome” (Molecular Immunology, 2015)
